Experimental data taken from IntAct's records for PubMed 18809921.

B1: CCAAT/enhancer-binding protein beta (Homo sapiens), P17676 (parent)
chain: MQRLVAWDPACLPLPPPPPAFKSMEVANFYYEADCLAAAYGGKAAPAAPPAARPGPRPPAGELGSIGDHERAIDFSPYLEPLGAPQAPAPATATDTFEAAPPAPAPAPASSGQHHDFLSDLFSDDYGGKNCKKPAEYGYVSLGRLGAAKGALHPGCFAPLHPPPPPPPPPAELKAEPGFEPADCKRKEEAGAPGGGAGMAAGFPYALRAYLGYQAVPSGSSGSLSTSSSSSPPGTPSPADAKAPPTACYAGAAPAPSQVKSKAKKTVDKHSDEYKIRRERNNIAVRKSRDKAKMRNLETQHKVLELTAENERLQKKVEQLSRELSTLRNLFKQLPEPLLASSGHC

Variants of: B1
Details: with abc3g_human APOBEC3G

| effect of a mutation on the interaction | Variant |
| --- | --- |
| decreasing interaction | MQRLVAWDPACLPLPPPPPAFKSMEVANFYYEADCLAAAYGGKAAPAAPPAARPGPRPPAGELGSIGDHERAIDFSPYLEPLGAPQAPAPATATDTFEAAPPAPAPAPASSGQHHDFLSDLFSDDYGGKNCKKPAEYGYVSLGRLGAAKGALHPGCFAPLHPPPPPPPPPAELKAEPGFEPADCKRKEEAGAPGGGAGMAAGFPYALRAYLGYQAVPSGSSGSLSTSSSSSPPGTPSPADAKAPPTACYAGAAPAPSQVKSKAKKTVDKHSDEYKIRRERNNIAVRKARDKAKMRNLETQHKVLELTAENERLQKKVEQLSRELSTLRNLFKQLPEPLLASSGHC [S288A] |
